Measured values from the DeepSol protein solubility set.

Experiment: soluble on expression in E. coli; label from the status in PepcDB or PDB records

Sequence | soluble on expression in E. coli
MCNNEAKMSELLSVQSDAPAKKINLMDLTRQQMREFFKELGEKPFRADQLVKWIYHFGEDNFDNMTNINKKLREKLKAVAEIKAPEVAVEQRSADGTIKWAMQVGEQQVETVYIPEADRATLCVSSQVGCALACTFCSTAQQGFNRNLTVSEIIGQVWRASKIIGNFGVTGVRPITNVVMMGMGEPLLNVANVVPAMEIMLDDFAYGLSKRRVTLSTSGVVPALDNLSKMIDVALAISLHAPNDELRDEIVPINKKYNIKTLIDSVNRYLNVSNANHGKVTIEYVMLDHVNDGVEHAHQLAEVLKNTPCKINLIPWNPFPEAPYAKSSNTRIDRFQKTLMEYDFTVIIRKTRGDDIDAACGQLAGDVIDRTKRTAMKRQFGQNIGVTEVN | not soluble
GSDARSRGRVPGYASSSLYRESGIISARQLALLQRMLPRLRLEQLFRCEWLQQRLARGLALGREEVRQILLCAAQDDDGWCSELGDRVNLAVPQSMIDWVLLPVYGWWESLLDQAIPGWRLSLVELETQSRQLRVKSEFWSRVAELEPEQAREELARVAKCQARTQEQVAELAGKLETASALAKSAWPNWQRGMATLLASGGLAGFEPIPEVLECLWQPLCRLDDDVGAADAVQAWLHERNLCQAQDHFYWQS | not soluble
PDLTAALRDVRQQYESVAAKNLQEAEEWYKSKFADLSEAANRNNDALRQAKQESTEYRRQVQSLTCEVDALK | soluble
GSHNATSGHEDMPVERILEAELAVEPKTESYGDMNMENSTNDPVTNICHAADKQLFTLVEWAKRIPHFSDLTLEDQVILLRAGWNELLIASFSHRSVSVQDGILLATGLHVHRSSAHSAGVGSIFDRVLTELVSKMKDMQMDKSELGCLRAIVLFNPDAKGLSNPSEVETLREKVYATLEAYTKQKYPEQPGRFAKLLLRLPALRSIGLKCLEHLFFFKLIGDTPIDTFLMEMLETPLQIT | soluble
MNHQETMTDYLMAFIEGLKNSGVEQAVISPGSRSTPLALLLHRETAIQTFVDVDERSAAFFALGLSKASQKPVVLLCTSGTAAANYYPAICEANISHVPLVVLTTDRPHELRQVGAPQAMDQLQMYQNHVKLFVEMALPEATEEMLNYAYWQGAKGAAFAQQTPAAPVHLNFPLREPLLPDLERKTKSSQQTALFAGQSILSTEQVQQLADQWYQKNGVLVVGGSHTEEEATLFIQLAEALQWPLLADPLANIVTHGQNSEVVIAHSDLFLNVATLPQEPEVVVRFGSLPISKNIMLWLKRLATTETAFYFVDENGQWQEQLKKSQTVIQAKETTFVEQLLTVVKPTEATWLAQWLLLEKTVSEVLLETLNATELNETTASLAVHQTMKENGQLFVSNSMAIRYLDRFMDSRPYRMFGNRGINGIDGIVSTALGMSAIAPTQQNVLLIGDLALYHDMNGLFLAKRYQLPLTIVLLNNNGGGIFSFLSQRTLREDDFEPLFGTPLDLDFSLVAELYGASYQEVKTIAELKQILQAAAEEPQFQVIEVKGNRQENVHLYESILAEIGRRVERQGISWNG | not soluble
MSAKQKELERLLELKKKQEEQQVLNQKDMLERIKLENKYMEFLQMTSQQMEEELKKRGPVKEVEVKGKDIDPIIADYKKLYSKESWYKEPETKDGKTHLTFPSQEAAGTFFKDQAEKNRSFIVIDAATNKVLAYSNGDGKLYNGNGSLYQGGDFKASKEDFTSFKMPEREEPKMGMQL | not soluble
MPAALIKDFLLTQGLKLPLDEVRAAYLTAQTVMDMGTASIDRSVLWRSDEGWKLADYLSCDNVREDALKRLFMALDSVFSRSTGVRSAAVYALMPSENQAFQLICLSRQGEVLENLWDLDEAAGKVSLACRSAQSGWMNVASDVRRWLDLGELSGERNHASAAQISIPVCTESGGVLGVVHVEFECAECAGTAAQVEWVALALALSEPLKLLLGMSAGKDGSEDV | not soluble
FDGNLKRYLKSEPIPESNDGPVKVVVAENFDEIVNNENKDVLIEFYAPWCGHCKNLEPKYKELGEKLSKDPNIVIAKMDATANDVPSPYEVRGFPTIYFSPANKKLNPKKYEGGRELSDFISYLQREAT | soluble
HLVCPMSKSPYVDPHKSGHEIWEEFSMSFTPAVKEVVEFAKRIPGFRDLSQHDQVNLLKAGTFEVLMVRFASLFDAKERTVTFLSGKKYSVDDLHSMGAGDLLNSMFEFSEKLNALQLSDEEMSLFTAVVLVSADRSGIENVNSVEALQETLIRALRTLIMKNHPNEASIFTKLLLKLPDLRSLNNMHSEELLAFKVHP | soluble
MEILTLEQQKSFIKAIDGHKLEVLFLLALGTGLRLGELLGLKWFDIDFKKSNLTVKRTLQRTYFIDKTGNRELKVLEQGPKTSNSYRTVPIPKDVLNKLKEHKVNQNTDILKAGELYINNNYVFCNELGIPIDDKRPLRNLKSILNSLNIEPIKFHGLRKTYATRLFENDVPPKTVQVLMGHYDISITLNIYTQVMEDKKVEAVEKLDKIFSLEHHHHHH | soluble
MKDVVEYLVRYLVDRPEAVRVQVRRGKEGTVYLVEVAPEDKGRLIGKGGRVIESLRTVVRAYAKRKVGVEVR | soluble
QPPAPRMIADGYQLLSELGALDERKGLTQIGHQLARFPTDPRIARMIMAAKQENCLSEVLIIAAALSLQDPRDRPFEHQQAADQAHQPFRDDR | not soluble
MGSDKIHHHHHHMNTGASAGVCDAFDRGRFRNAIEVFSSRMPAEIRTARASDVDDLAAIEKAVFSSDRISRRSFRLFIERETAETLVAEVDGRVAGYAIVLFRKGSGVARLYSIAVGPFFGALGIGRQLLTAAEEAAFEHDRMMLRLEVREDNSRAIRIYEQAGYRKIGREPGYYEDGATALRYEKTLRGDLPVATRVPFYQQTCEFTCGPCCLMMAMANFDRGFVPDPVMEIRLWREATTVFMMSGPGGCEPFGLAVSGYESGLAAEIFVSFYGALFLQSVRSEDKRRVMELAQVDFRRRAELYGIPVNCRPFTLDDIRTAIAAGKLVLVLISGFLMFGKKVPHWVLAIGDDGDHILIHDPWVEDERQETILDAANIPVPYGIFMNMAQFGRDGLRAAITLGKRDTQ | not soluble
MGSDKIHHHHHHMPERVLNFRALFLHGLYKMDKPKAYCRLFLPSFLLLSACTVDISQPDPSATAVDAEAKTWAVKFQHQSSFTEQSIKEITAPDLKPGDLLFSSSLGVTSFGIRVFSTSSVSHVAIFLGDNNVAEATGAGVQIVSLKKAMKHSDKLFVLRVPDLTPQQATDITAFANKIKDSGYNYRGIVEFIPFMVTRQMCSLNPFSEDFRQQCVSGLAKAQLSSVGEGDKKSWFCSEFVTDAFAKAGHPLTLAQSGWISPADLMHMRIGDVSAFKPETQLQYVGHLKPGIYIKAGRFVGLTR | not soluble
MIYMSEIIEVIYEDGVLKPLKPLKIKGKKRLKIKIVNDDVEEFLKSMIIKKCKDIDYKKLKEAYYESFLEHHHHHH | not soluble
MGDTTFLIEFDHPAAVYSPGQNVAGKLTIRNRNALNALALKICIHGDIETLWRKFENKGRYDRHGRWYRSSEHINYTSKINVLEGIAQPWSSIENANNKIPGGVNIFPFLFQLPANLPPSFEGTHGNVRYSVHVELDRPWRMNVEAKRVFSVIPVIDLNSIPKTINPMIVSSCKHSGLFSNKEVKVKISIPKSGYIPGETIQVSALIQNHTKKPIYSIKAKLEQHVHYQAQQENSHLFPEEHCHKHCEHKTAQTTMSKVEKSCHVEFCSNSQINVPLVLPNQLVPSFRTGIIEVDYCIIVDIGENKKLRCELPITVGTIPIGVFTRPIAYSITEAPPKYENFSQIVEDSQASAPPPEYENEEHF | not soluble
MSLVLQMKSGGVVSDARTELDTQRLAKYIGGKHALVAQGGGQRGIFTAGVLDAFLLSNFDPYHEFYGTSAGALNLCAFLSRQTGLSKAFILELTTRAEFFHLFSYIRRKQYMNMQWALDRIGEYPYRLDLDMARQALGKRKAYAAVTSADDLKDAYFPMLGADWQQVLLATCAIPGLYPEPVTLAGKQYIDGGVSASIPVQEAWRKEARFITVIRTEFMSKEEETPSPSATELPLWLREPLNHLQHQLQHKWSGWRQEWNEFLQQQKLRAKEQKKEQKHLDALNGGRWLFGADDIYRLSHLLGSKFDAGLADLLMVHYQTYTLTSEFLDAHHDDTFIAQIMPSEPLHSNSLLSSPEALQYDYELGLKAGYRFLKAYSEAETFRKEGHHHHHH | soluble
MSLEKKMEEKKKIKLIATDMDGTLVNDAKEVPASFAPWVLSHPDQQMVIASGRPYYTNEELFKEIKDHLIFIGDNGGLIYQQGQVLAKAGITAEEAKFCLDLFKDEPLANPILCGASQAICHDPKGDRNFLKQLDTYYIKRRYVEDLEAEVNSDEIIKFTVYIEGGAAESIYRQLPEMPGNLSAVLAGPEWIDIVNKDANKGAAVKKIADLKGIKQDEILAFGDYLNDLTMLEAAGTSYAMVNGHPDLKKIADHIAPSNNDEGVMQILRKLFDEGHHHHHH | soluble
MKSEILQQIKQYETIILHRHVRPDPDAYGSQMGLAEIIRASFPEKKVYSVGNDEVSLQFLGAVDEIADEVYKDALVIVCDTANQERVSDVRFSSGQKLIKIDHHPNDDAYGDLLWVDTTASSCSEMIVAFWETFSDELILNETAARLLYAGIVGDTGRFLYPSTTEETLRLSAHLVTFPFDRPALYRELYELPKNTVKLSGYILQNFVMDENGAATVYLSDTLLREFEVDPRDASALVSCIENVEGIKAWIMFIQEGPVFRARLRSKGPVINELAKEYGGGGHPLASGATLHNEEEIKEMTVKLARICAAKLEHHHHHH | soluble
MNNTVIACVDGSPSTRPVCEYAAWAAGKLGAPLALLHVLEKSETPAVSDLTGSIGIDSREQLTEALVRVEGERSRLLMAQGKAVLAGCAELLKQTGQPDAQLLQKHGALDEILAELGEVRLMVLGRRGTQNQVGSHLESVIRLQKNPVLIVPETFTPPARVMFAYDGSSESRKNLTRLTVSPLLHGLSCHIVMVNGDMSALQDAQAVLQEAGITTETRLLEDESVTGALCRYADAHDIDLTVMGACGHSRLRRFFIGSHTTEMLSESRQPLLMLR | not soluble
MNEQPAACRIKVEALGAGFAPAAEQWAERLGLALQVDEAEFALQVGEQGLQLQQLGPDAPGPVRVDFVEGGAAHRRLYGGGSGQMIAKAVGVAQGVRPRVLDATAGLGKDGFVLATLGCEMSLIERQPLIGALLEDGLARAAQDAEVGPIVARMHLLKGNSIELMRNWQGEPPQVIYLDPMFPHREKSALVKKEMRLFRPLVGDDNDAPALLAAALALASHRVVVKRPRKAPCIEGPKPSHGLEGKSSRYDIYPKKALKALEHHHHHH | not soluble
GPGSMSDWETIAKESEKVLVKPDIKGCHEILMKAYEGGNHHPEILWRLGRSYYEMANESTDPAVREPYLKEGMELCKKSVEADPHNFASHKWLGILISDQKVGNKEKIANAYIIRDHFLKAVELNPNDATSLHCMGNWCFKILQIGWLERKAAALILGEPPSSTYEECLGYLLRSAEAGNTIHNSTMIGDVYAQQSMHDEARKWYQKAIDMPAYTELQKRNHDAAVAKIKKL | soluble
MTDDKDVLRDVWFGRIPTCFTLYQDEITEREAEPYYLLLPRVSYLTLVTDKVKKHFQKVMRQEDVSEIWFEYEGTPLKWHYPIGLLFDLLASSSALPWNITVHFKSFPEKDLLHCPCKDAVEAHFMSCVKEADALKHKSQVINEMQRKDHKQLWMGLQNDLTSFGPSTGNSWNTLQKKMDFVISLLEYIRPQLNGLSFRSCSVLWPQMDSCIPLEIS | not soluble
MKHTIGILGGMGPAATADMLEKFVELRHASCDQQHIPLIVSSIPDIPDRTACLLSGGPSPYRYLERYLHMLEDAGAECIVIPCNTAHYWFDDLQNVAKARMISILDATLGDIPPSARHVGLLATNATLATGLYQKKALARGLTLIQPEDAGQALVMQAIYTLKRGDKTAAQALLLPQIDSLIARGAQAIIMGCTEIPLIVAGHERAIACPMIDSTASLVRAAIRWYESWPDTRASLTGEQRLTA | not soluble
